Measured values from IntAct's records for PubMed 25910212.

B1: PiggyBac transposable element-derived protein 1 (Homo sapiens), Q96JS3 (parent)
chain: MYEALPGPAPENEDGLVKVKEEDPTWEQVCNSQEGSSHTQEICRLRFRHFCYQEAHGPQEALAQLRELCHQWLRPEMHTKEQIMELLVLEQFLTILPKELQPCVKTYPLESGEEAVTVLENLETGSGDTGQQASVYIQGQDMHPMVAEYQGVSLECQSLQLLPGITTLKCEPPQRPQGNPQEVSGPVPHGSAHLQEKNPRDKAVVPVFNPVRSQTLVKTEEETAQAVAAEKWSHLSLTRRNLCGNSAQETVMSLSPMTEEIVTKDRLFKAKQETSEEMEQSGEASGKPNRECAPQIPCSTPIATERTVAHLNTLKDRHPGDLWARMHISSLEYAAGDITRKGRKKDKARVSELLQGLSFSGDSDVEKDNEPEIQPAQKKLKVSCFPEKSWTKRDIKPNFPSWSALDSGLLNLKSEKLNPVELFELFFDDETFNLIVNETNNYASQKNVSLEVTVQEMRCVFGVLLLSGFMRHPRREMYWEVSDTDQNLVRDAIRRDRFELIFSNLHFADNGHLDQKDKFTKLRPLIKQMNKNFLLYAPLEEYYCFDKSMCECFDSDQFLNGKPIRIGYKIWCGTTTQGYLVWFEPYQEESTMKVDEDPDLGLGGNLVMNFADVLLERGQYPYHLCFDSFFTSVKLLSALKKKGVRATGTIRENRTEKCPLMNVEHMKKMKRGYFDFRIEENNEIILCRWYGDGIISLCSNAVGIEPVNEVSCCDADNEEIPQISQPSIVKVYDECKEGVAKMDQIISKYRVRIRSKKWYSILVSYMIDVAMNNAWQLHRACNPGASLDPLDFRRFVAHFYLEHNAHLSD
partner: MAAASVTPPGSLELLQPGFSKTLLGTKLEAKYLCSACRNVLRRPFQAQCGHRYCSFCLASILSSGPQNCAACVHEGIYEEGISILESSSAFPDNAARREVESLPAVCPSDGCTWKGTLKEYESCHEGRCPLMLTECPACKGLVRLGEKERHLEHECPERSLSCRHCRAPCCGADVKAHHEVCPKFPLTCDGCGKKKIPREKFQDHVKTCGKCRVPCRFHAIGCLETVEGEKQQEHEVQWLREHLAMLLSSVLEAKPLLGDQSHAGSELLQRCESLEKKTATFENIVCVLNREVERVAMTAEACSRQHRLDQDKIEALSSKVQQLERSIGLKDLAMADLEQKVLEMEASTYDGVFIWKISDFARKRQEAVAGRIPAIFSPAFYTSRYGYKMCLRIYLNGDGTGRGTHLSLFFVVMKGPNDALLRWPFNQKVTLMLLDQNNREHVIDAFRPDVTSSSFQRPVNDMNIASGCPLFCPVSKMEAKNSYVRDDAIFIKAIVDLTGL
B2: Casein kinase I isoform epsilon (Homo sapiens), P49674 (parent)
chain: MELRVGNKYRLGRKIGSGSFGDIYLGANIASGEEVAIKLECVKTKHPQLHIESKFYKMMQGGVGIPSIKWCGAEGDYNVMVMELLGPSLEDLFNFCSRKFSLKTVLLLADQMISRIEYIHSKNFIHRDVKPDNFLMGLGKKGNLVYIIDFGLAKKYRDARTHQHIPYRENKNLTGTARYASINTHLGIEQSRRDDLESLGYVLMYFNLGSLPWQGLKAATKRQKYERISEKKMSTPIEVLCKGYPSEFSTYLNFCRSLRFDDKPDYSYLRQLFRNLFHRQGFSYDYVFDWNMLKFGAARNPEDVDRERREHEREERMGQLRGSATRALPPGPPTGATANRLRSAAEPVASTPASRIQPAGNTSPRAISRVDRERKVSMRLHRGAPANVSSSDLTGRQEVSRIPASQTSVPFDHLGK
partner: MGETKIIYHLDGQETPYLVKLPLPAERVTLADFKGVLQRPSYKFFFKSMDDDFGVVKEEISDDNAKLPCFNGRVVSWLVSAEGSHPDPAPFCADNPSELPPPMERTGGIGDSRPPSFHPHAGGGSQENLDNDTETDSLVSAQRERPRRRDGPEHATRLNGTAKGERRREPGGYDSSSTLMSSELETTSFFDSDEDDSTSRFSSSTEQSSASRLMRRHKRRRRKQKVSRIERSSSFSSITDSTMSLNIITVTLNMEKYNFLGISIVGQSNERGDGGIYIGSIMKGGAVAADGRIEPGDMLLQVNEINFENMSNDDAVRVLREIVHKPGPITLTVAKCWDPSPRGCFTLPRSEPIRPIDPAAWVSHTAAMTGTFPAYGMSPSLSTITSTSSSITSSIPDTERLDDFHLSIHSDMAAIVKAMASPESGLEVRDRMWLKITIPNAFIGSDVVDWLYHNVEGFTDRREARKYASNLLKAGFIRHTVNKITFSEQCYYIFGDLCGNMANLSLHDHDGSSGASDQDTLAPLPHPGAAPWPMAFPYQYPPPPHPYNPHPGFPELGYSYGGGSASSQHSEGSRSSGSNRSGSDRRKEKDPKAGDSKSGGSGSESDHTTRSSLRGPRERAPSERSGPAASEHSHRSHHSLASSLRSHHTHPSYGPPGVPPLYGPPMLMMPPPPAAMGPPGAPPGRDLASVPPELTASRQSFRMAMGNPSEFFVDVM
B3: EGF-containing fibulin-like extracellular matrix protein 1 (Homo sapiens), Q12805 (parent)
chain: MLKALFLTMLTLALVKSQDTEETITYTQCTDGYEWDPVRQQCKDIDECDIVPDACKGGMKCVNHYGGYLCLPKTAQIIVNNEQPQQETQPAEGTSGATTGVVAASSMATSGVLPGGGFVASAAAVAGPEMQTGRNNFVIRRNPADPQRIPSNPSHRIQCAAGYEQSEHNVCQDIDECTAGTHNCRADQVCINLRGSFACQCPPGYQKRGEQCVDIDECTIPPYCHQRCVNTPGSFYCQCSPGFQLAANNYTCVDINECDASNQCAQQCYNILGSFICQCNQGYELSSDRLNCEDIDECRTSSYLCQYQCVNEPGKFSCMCPQGYQVVRSRTCQDINECETTNECREDEMCWNYHGGFRCYPRNPCQDPYILTPENRCVCPVSNAMCRELPQSIVYKYMSIRSDRSVPSDIFQIQATTIYANTINTFRIKSGNENGEFYLRQTSPVSAMLVLVKSLSGPREHIVDLEMLTVSSIGTFRTSSVLRLTIIVGPFSF
partner: B1 partner
B4: Galactose-1-phosphate uridylyltransferase (Homo sapiens), P07902 (parent)
chain: MSRSGTDPQQRQQASEADAAAATFRANDHQHIRYNPLQDEWVLVSAHRMKRPWQGQVEPQLLKTVPRHDPLNPLCPGAIRANGEVNPQYDSTFLFDNDFPALQPDAPSPGPSDHPLFQAKSARGVCKVMCFHPWSDVTLPLMSVPEIRAVVDAWASVTEELGAQYPWVQIFENKGAMMGCSNPHPHCQVWASSFLPDIAQREERSQQAYKSQHGEPLLMEYSRQELLRKERLVLTSEHWLVLVPFWATWPYQTLLLPRRHVRRLPELTPAERDDLASIMKKLLTKYDNLFETSFPYSMGWHGAPTGSEAGANWNHWQLHAHYYPPLLRSATVRKFMVGYEMLAQAQRDLTPEQAAERLRALPEVHYHLGQKDRETATIA
B5: AMP deaminase 3 (Homo sapiens), Q01432 (parent)
chain: MPRQFPKLNISEVDEQVRLLAEKVFAKVLREEDSKDALSLFTVPEDCPIGQKEAKERELQKELAEQKSVETAKRKKSFKMIRSQSLSLQMPPQQDWKGPPAASPAMSPTTPVVTGATSLPTPAPYAMPEFQRVTISGDYCAGITLEDYEQAAKSLAKALMIREKYARLAYHRFPRITSQYLGHPRADTAPPEEGLPDFHPPPLPQEDPYCLDDAPPNLDYLVHMQGGILFVYDNKKMLEHQEPHSLPYPDLETYTVDMSHILALITDGPTKTYCHRRLNFLESKFSLHEMLNEMSEFKELKSNPHRDFYNVRKVDTHIHAAACMNQKHLLRFIKHTYQTEPDRTVAEKRGRKITLRQVFDGLHMDPYDLTVDSLDVHAGRQTFHRFDKFNSKYNPVGASELRDLYLKTENYLGGEYFARMVKEVARELEESKYQYSEPRLSIYGRSPEEWPNLAYWFIQHKVYSPNMRWIIQVPRIYDIFRSKKLLPNFGKMLENIFLPLFKATINPQDHRELHLFLKYVTGFDSVDDESKHSDHMFSDKSPNPDVWTSEQNPPYSYYLYYMYANIMVLNNLRRERGLSTFLFRPHCGEAGSITHLVSAFLTADNISHGLLLKKSPVLQYLYYLAQIPIAMSPLSNNSLFLEYSKNPLREFLHKGLHVSLSTDDPMQFHYTKEALMEEYAIAAQVWKLSTCDLCEIARNSVLQSGLSHQEKQKFLGQNYYKEGPEGNDIRKTNVAQIRMAFRYETLCNELSFLSDAMKSEEITALTN
B6: Prelamin-A/C (Homo sapiens), P02545-2 (parent)
chain: METPSQRRATRSGAQASSTPLSPTRITRLQEKEDLQELNDRLAVYIDRVRSLETENAGLRLRITESEEVVSREVSGIKAAYEAELGDARKTLDSVAKERARLQLELSKVREEFKELKARNTKKEGDLIAAQARLKDLEALLNSKEAALSTALSEKRTLEGELHDLRGQVAKLEAALGEAKKQLQDEMLRRVDAENRLQTMKEELDFQKNIYSEELRETKRRHETRLVEIDNGKQREFESRLADALQELRAQHEDQVEQYKKELEKTYSAKLDNARQSAERNSNLVGAAHEELQQSRIRIDSLSAQLSQLQKQLAAKEAKLRDLEDSLARERDTSRRLLAEKEREMAEMRARMQQQLDEYQELLDIKLALDMEIHAYRKLLEGEEERLRLSPSPTSQRSRGRASSHSSQTQGGGSVTKKRKLESTESRSSFSQHARTSGRVAVEEVDEEGKFVRLRNKSNEDQSMGNWQIKRQNGDDPLLTYRFPPKFTLKAGQVVTIWAAGAGATHSPPTDLVWKAQNTWGCGNSLRTALINSTGEEVAMRKLVRSVTVVEDDEDEDGDDLLHHHHVSGSRR
B7: Transmembrane protein 43 (Homo sapiens), Q9BTV4 (parent)
chain: MAANYSSTSTRREHVKVKTSSQPGFLERLSETSGGMFVGLMAFLLSFYLIFTNEGRALKTATSLAEGLSLVVSPDSIHSVAPENEGRLVHIIGALRTSKLLSDPNYGVHLPAVKLRRHVEMYQWVETEESREYTEDGQVKKETRYSYNTEWRSEIINSKNFDREIGHKNPSAMAVESFMATAPFVQIGRFFLSSGLIDKVDNFKSLSLSKLEDPHVDIIRRGDFFYHSENPKYPEVGDLRVSFSYAGLSGDDPDLGPAHVVTVIARQRGDQLVPFSTKSGDTLLLLHHGDFSAEEVFHRELRSNSMKTWGLRAAGWMAMFMGLNLMTRILYTLVDWFPVFRDLVNIGLKAFAFCVATSLTLLTVAAGWLFYRPLWALLIAGLALVPILVARTRVPAKKLE
partner: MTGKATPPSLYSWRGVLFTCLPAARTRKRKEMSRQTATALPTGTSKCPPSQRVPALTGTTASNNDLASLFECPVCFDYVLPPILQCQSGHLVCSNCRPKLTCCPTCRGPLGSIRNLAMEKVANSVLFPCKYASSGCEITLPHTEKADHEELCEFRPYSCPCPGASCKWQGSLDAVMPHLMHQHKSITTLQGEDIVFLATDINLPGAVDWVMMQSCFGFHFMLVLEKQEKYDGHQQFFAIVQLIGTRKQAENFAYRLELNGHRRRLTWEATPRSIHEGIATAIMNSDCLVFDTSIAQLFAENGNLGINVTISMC

Variants of: B1
Conditions: with traf2_human TRAF2, Q12933

Variant	effect of a mutation on the interaction
G244E	with no effect
H806D	with no effect

Variants of: B2
Conditions: with dvl3_human DVL3, Q92997

Variant	effect of a mutation on the interaction
S408N	disrupting interaction strength

Variants of: B3
Conditions: with traf2_human TRAF2, Q12933

Variant	effect of a mutation on the interaction
R345W	with no effect

Variants of: B4
Conditions: with TNK2, Q07912-2
Sequence of TNK2, Q07912-2 (Q07912 other isoform, or with tags, fused parts or gaps): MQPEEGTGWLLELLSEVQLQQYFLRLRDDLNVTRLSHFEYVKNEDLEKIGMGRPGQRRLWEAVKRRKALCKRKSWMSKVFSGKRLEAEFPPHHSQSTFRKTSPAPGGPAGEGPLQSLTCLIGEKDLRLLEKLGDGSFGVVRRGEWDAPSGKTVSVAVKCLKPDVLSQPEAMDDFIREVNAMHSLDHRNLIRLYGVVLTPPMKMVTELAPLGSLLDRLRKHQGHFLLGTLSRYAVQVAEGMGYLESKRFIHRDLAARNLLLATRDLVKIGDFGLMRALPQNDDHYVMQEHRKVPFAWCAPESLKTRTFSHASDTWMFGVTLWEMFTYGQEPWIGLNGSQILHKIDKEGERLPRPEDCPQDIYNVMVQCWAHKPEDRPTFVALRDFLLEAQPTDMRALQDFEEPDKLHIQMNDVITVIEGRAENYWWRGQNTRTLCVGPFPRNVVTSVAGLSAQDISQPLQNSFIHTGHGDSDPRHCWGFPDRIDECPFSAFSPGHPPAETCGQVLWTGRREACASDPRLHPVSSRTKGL

Variant	effect of a mutation on the interaction
G175D	with no effect
H319Q	with no effect
Y34N	with no effect
R272H	with no effect

Variants of: B5
Conditions: with hs90b_human HSP90AB1, P08238
Sequence of hs90b_human HSP90AB1, P08238 (P08238 whole entry): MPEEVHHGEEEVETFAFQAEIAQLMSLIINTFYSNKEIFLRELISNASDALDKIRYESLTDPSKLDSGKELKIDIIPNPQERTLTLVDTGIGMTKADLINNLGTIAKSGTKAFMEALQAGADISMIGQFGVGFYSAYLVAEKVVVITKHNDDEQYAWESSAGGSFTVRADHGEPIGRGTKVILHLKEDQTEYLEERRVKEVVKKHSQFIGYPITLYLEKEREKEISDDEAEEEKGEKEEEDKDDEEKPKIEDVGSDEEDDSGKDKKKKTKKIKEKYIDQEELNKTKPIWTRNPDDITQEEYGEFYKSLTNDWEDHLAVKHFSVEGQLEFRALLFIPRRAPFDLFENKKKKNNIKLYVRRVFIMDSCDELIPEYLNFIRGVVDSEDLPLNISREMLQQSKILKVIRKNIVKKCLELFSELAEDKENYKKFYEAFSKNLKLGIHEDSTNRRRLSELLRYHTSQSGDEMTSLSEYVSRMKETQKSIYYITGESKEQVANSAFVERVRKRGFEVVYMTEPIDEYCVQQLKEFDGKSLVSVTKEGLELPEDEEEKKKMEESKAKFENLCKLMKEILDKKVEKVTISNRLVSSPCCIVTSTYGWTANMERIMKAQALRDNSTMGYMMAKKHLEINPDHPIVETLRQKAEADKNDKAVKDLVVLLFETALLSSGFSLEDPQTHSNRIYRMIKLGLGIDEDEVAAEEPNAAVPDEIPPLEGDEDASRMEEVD

Variant	effect of a mutation on the interaction
A320V	increasing interaction strength
W450R	increasing interaction strength

Variants of: B6
Conditions: with syce1_human SYCE1, Q8N0S2
Sequence of syce1_human SYCE1, Q8N0S2 (Q8N0S2 whole entry): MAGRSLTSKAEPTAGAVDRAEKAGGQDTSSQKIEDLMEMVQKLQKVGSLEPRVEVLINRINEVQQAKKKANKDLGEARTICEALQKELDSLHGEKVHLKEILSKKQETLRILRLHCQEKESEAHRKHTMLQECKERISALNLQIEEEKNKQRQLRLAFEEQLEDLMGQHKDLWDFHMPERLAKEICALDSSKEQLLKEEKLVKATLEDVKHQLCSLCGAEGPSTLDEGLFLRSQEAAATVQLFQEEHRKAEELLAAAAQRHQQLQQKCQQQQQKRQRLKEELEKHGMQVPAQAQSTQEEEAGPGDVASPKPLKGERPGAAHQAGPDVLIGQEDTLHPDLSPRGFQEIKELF

Variant	effect of a mutation on the interaction
R377L	disrupting interaction strength
R60G	disrupting interaction strength

Variants of: B7
Conditions: with SIAH1, Q8IUQ4-2

Variant	effect of a mutation on the interaction
S358L	with no effect
